From the MegaScale stability set (Tsuboyama et al. 2023)

B1: 2M8U (parent)
chain: TKAQVIEAFKVFDRDGNGYVTVDYLRKVLNELGDMMPADEIEEMIYEADPQNSGYVQYETFVGMLFL

Variants of: B1
Assay: folding stability dG (cDNA display proteolysis); higher = more stable
Conditions: PBS, room temperature

Folding stability dG [kcal/mol]: each site, then its substitutions
S53: F 3.16, E 3.09, H 3.11, A 3.19, L 3.2, T 3.49, Y 3.2, Q 3.28, W 3.22, C 3.18, I 3.21, N 3.26, G 2.94, R 3.35, M 3.23, K 3.39, V 3.15, D 3.02, P 2.4
G54: A 2.36, K 2.47, V 2.48, F 2.89, H 2.49, I 2.76, Y 2.93, T 2.35, R 2.56, Q 2.29, C 2.59, S 2.48, D 2.06, N 2.9, L 2.48, M 2.59, E 2.26, W 2.82, P 2.26
M64: G 3.04, I 3.15, W 3.59, K 4.14, T 3.29, C 3.37, F 3.34, E 3.29, Q 3.53, R 4.29, N 3.83, D 3.23, H 3.69, L 3.74, Y 3.25, A 3.21, P 2.66, V 3.03, S 3.08
V62: M 2.67, T 3, Y 2.11, N 1.68, C 2.48, L 2.76, P 1.22, G 1.93, F 2.15, I 3.29, S 2.36, E 1.66, W 2.11, A 3.15, R 1.93, K 1.97, H 1.7, Q 1.94, D 1.28
F66: H 2.67, A 2.62, I 2.84, R 2.78, N 2.92, M 2.88, C 2.86, E 2.56, W 3.19, P 2.87, Y 2.71, V 2.84, G 2.57, K 2.73, L 2.59, D 2.96, S 2.72, Q 2.55, T 2.83
P50: H 3.07, V 2.99, K 3.39, I 3.23, G 3, W 3.39, N 3.05, R 3.38, Y 3.06, E 2.89, D 2.9, C 3.11, T 3.12, Q 3.25, M 3.05, S 3.29, F 3.05, L 3.21
V56: A 2.7, W 2.49, S 2.17, K 1.78, I 3.69, H 2.04, P 1.86, F 2.62, C 2.17, G 2.62, M 2.55, E 2.33, L 3.07, R 2.24, N 1.99, T 2.14, Y 2.29, D 2.39, Q 1.96
Y55: G 2.16, D 2.22, A 2.82, E 3.05, I 3.37, N 3.16, P 1.77, T 3.11, W 3.55, Q 3.48, C 3.44, S 3.25, R 3.37, M 3.51, F 3.35, K 3.25, L 3.35, H 3.22, V 3.44
E59: S 3.05, H 3.24, W 3.37, M 3.93, A 3.15, N 2.91, R 3.06, P 2.47, G 2.76, C 3.25, L 3.47, F 3.54, I 3.41, V 3.68, K 3.23, Q 3.11
